# Conditions: Saccharolobus solfataricus (strain ATCC 35092 / DSM 1617 / JCM 11322 / P2), Thermal, DSC, glycine-HCl 10 mM, NaCl 100 mM, reversible: yes, whole UniProt chain shown
protein,measurement,setting,value
"DNA-binding protein 7d wild type, P39476 (protein) MATVKFKYKGEEKEVDISKIKKVWRVGKMISFTYDEGGGKTGRGAVSEKDAPKELLQMLEKQKK",Tm,pH 2.3,64 °C
same,heat capacity change of unfolding,pH 2.3,0.48 kcal/mol/K
same,unfolding enthalpy (calorimetric),pH 2.3,40.6 kcal/mol
same,Tm,pH 2.5,65.5 °C
same,heat capacity change of unfolding,pH 2.5,0.57 kcal/mol/K
same,unfolding enthalpy (calorimetric),pH 2.5,43 kcal/mol
same,Tm,pH 2.7,71.1 °C
same,heat capacity change of unfolding,pH 2.7,0.57 kcal/mol/K
same,unfolding enthalpy (calorimetric),pH 2.7,46.6 kcal/mol
same,Tm,pH 2.8,74 °C
same,heat capacity change of unfolding,pH 2.8,0.45 kcal/mol/K
same,unfolding enthalpy (calorimetric),pH 2.8,49 kcal/mol
same,Tm,pH 2.9,76.3 °C
same,heat capacity change of unfolding,pH 2.9,0.65 kcal/mol/K
same,unfolding enthalpy (calorimetric),pH 2.9,50.2 kcal/mol
same,Tm,pH 3,78.8 °C
same,heat capacity change of unfolding,pH 3,0.74 kcal/mol/K
same,unfolding enthalpy (calorimetric),pH 3,51.4 kcal/mol
same,Tm,pH 3.2,84.2 °C
same,heat capacity change of unfolding,pH 3.2,0.72 kcal/mol/K
same,unfolding enthalpy (calorimetric),pH 3.2,55 kcal/mol
same,Tm,pH 3.6,90.3 °C
same,heat capacity change of unfolding,pH 3.6,0.6 kcal/mol/K
same,unfolding enthalpy (calorimetric),pH 3.6,58.6 kcal/mol
same,Tm,pH 3.8,92.4 °C
same,heat capacity change of unfolding,pH 3.8,0.69 kcal/mol/K
same,unfolding enthalpy (calorimetric),pH 3.8,59.8 kcal/mol
same,Tm,pH 4,95.1 °C
same,heat capacity change of unfolding,pH 4,0.55 kcal/mol/K
same,unfolding enthalpy (calorimetric),pH 4,63.3 kcal/mol
